We go through three molecules from paper PMC5865211, “The orphan GPR50 receptor promotes constitutive TGFβ receptor signaling and protects against cancer development” (Nature Communications, 2018).

The chains are these.
B3: TβRI-Renilla luciferase 8 (Rluc8) fusion protein (receptor, UniProt P36897 34-503, looked up)
chain: LQCFCHLCTKDNFTCVTDGLCFVSVTETTDKVIHNSMCIAEIDLIPRDRPFVCAPSSKTGSVTTTYCCNQDHCNKIELPTTVKSSPGLGPVELAAVIAGPVCFVCISLMLMVYICHNRTVIHHRVPNEEDPSLDRPFISEGTTLKDLIYDMTTSGSGSGLPLLVQRTIARTIVLQESIGKGRFGEVWRGKWRGEEVAVKIFSSREERSWFREAEIYQTVMLRHENILGFIAADNKDNGTWTQLWLVSDYHEHGSLFDYLNRYTVTVEGMIKLALSTASGLAHLHMEIVGTQGKPAIAHRDLKSKNILVKKNGTCCIADLGLAVRHDSATDTIDIAPNHRVGTKRYMAPEVLDDSINMKHFESFKRADIYAMGLVFWEIARRCSIGGIHEDYQLPYYDLVPSDPSVEEMRKVVCEQKLRPNIPNRWQSCEALRVMAKIMRECWYANGAARLTALRIKKTLSQLSQQEGIKM
notes: TGFβ receptor type I; In the homomer BRET row the second copy of TβRI carried YFP (TβRI-YFP) instead of Rluc8; also called TβRI-Rluc8; source: HEK293T, transfected, in intact cells

In data set [1] the target is B3. Briefly: FRET or BRET; BRET donor saturation in intact HEK293T cells; fixed amount of TβRI-Rluc8, increasing amounts of YFP fusion; no TGFβ. The conditions noted are these: partners not purified. (Bioluminescence resonance energy transfer reports proximity on the nanometre scale.)
Data set [2] concerns the molecule itself. The description is as above.

B1: TβRII-YFP (receptor, UniProt P37173 23-567, looked up)
chain: TIPPHVQKSVNNDMIVTDNNGAVKFPQLCKFCDVRFSTCDNQKSCMSNCSITSICEKPQEVCVAVWRKNDENITLETVCHDPKLPYHDFILEDAASPKCIMKEKKKPGETFFMCSCSSDECNDNIIFSEEYNTSNPDLLLVIFQVTGISLLPPLGVAISVIIIFYCYRVNRQQKLSSTWETGKTRKLMEFSEHCAIILEDDRSDISSTCANNINHNTELLPIELDTLVGKGRFAEVYKAKLKQNTSEQFETVAVKIFPYEEYASWKTEKDIFSDINLKHENILQFLTAEERKTELGKQYWLITAFHAKGNLQEYLTRHVISWEDLRKLGSSLARGIAHLHSDHTPCGRPKMPIVHRDLKSSNILVKNDLTCCLCDFGLSLRLDPTLSVDDLANSGQVGTARYMAPEVLESRMNLENVESFKQTDVYSMALVLWEMTSRCNAVGEVKDYEPPFGSKVREHPCVESMKDNVLRDRGRPEIPSFWLNHQGIQMVCETLTECWDHDPEARLTAQCVAERFSELEHLDRLSGRSCSEEKIPEDGSLNTTK
notes: TGFβ receptor type II; also called TβRII-yellow fluorescent protein fusion; source: HEK293T, transfected, in intact cells
In data set [1], B1 returned a BRET50 of 0.046 ± 0.008.

B2: GPR50Δ4-YFP (receptor, human, UniProt Q13585 1-617, looked up)
chain: MGPTLAVPTPYGCIGCKLPQPEYPPALIIFMFCAMVITIVVDLIGNSMVILAVTKNKKLRNSGNIFVVSLSVADMLVAIYPYPLMLHAMSIGGWDLSQLQCQMVGFITGLSVVGSIFNIVAIAINRYCYICHSLQYERIFSVRNTCIYLVITWIMTVLAVLPNMYIGTIEYDPRTYTCIFNYLNNPVFTVTIVCIHFVLPLLIVGFCYVRIWTKVLAARDPAGQNPDNQLAEVRNFLTMFVIFLLFAVCWCPINVLTVLVAVSPKEMAGKIPNWLYLAAYFIAYFNSCLNAVIYGLLNENFRREYWTIFHAMRHPIIFFSGLISDIREMQEARTLARARAHARDQAREQDRAHACPAVEETPMNVRNVPLPGDAAAGHPDRASGHPKPHSRSSSAYRKSASTHHKSVFSHSKAASGHLKPVSGHSKPASGHPKSATVYPKPASVHFKADSVHFKGDSVHFKPDSVHFKPASSNPKPITGHHVSAGSHSKSAFSAATSHPKPIKPATSHAEPTTADYPKPATTSHPKPTAADNPELSASHCPEIPAIAHPVSDDSDLPESASSPAAGPTKPAASQLESDTIADLPDPTVVTTSTNDYHDVVVIDVEDDPDEMAV
notes: also called GPR50-YFP; source: HEK293T, transfected, in intact cells
Molecule B2 yielded a BRET50 in data set [1] of 0.031 ± 0.01.
Regarding B3, the BRET50 in data set [2] came out at 1.34 ± 0.185.
